Measurements as given in article PMC9181795, “Ibuprofen Favors Binding of Amyloid-β Peptide to Its Depot, Serum Albumin” (International Journal of Molecular Sciences, 2022).
“Also recorded” adds a separate entry of the source.

What was measured:
HSA–Aβ interaction = tested on: HSA–Aβ interaction; design: method as in 5 sources, ref [12] = [12]; PMID 30685090; doi:10.1016/j.bbrc.2019.01.081; 12. Litus E.A. Kazakov A.S. Sokolov A.S. Nemashkalova E.L. Galushko E.I. Dzhus U.F. Marchenkov V.V. Galzitskaya O.V. Permyakov E.A. Permyakov S.E. The binding of monomeric amyloid beta peptide to seru ||| ref [12],[13] = [12]; PMID 30685090; doi:10.1016/j.bbrc.2019.01.081; 12. Litus E.A. Kazakov A.S. Sokolov A.S. Nemashkalova E.L. Galushko E.I. Dzhus U.F. Marchenkov V.V. Galzitskaya O.V. Permyakov E.A. Permyakov S.E. The binding of monomeric amyloid beta peptide to seru || [13]; PMID 34072751; doi:10.3390/ijms22115896; 13. Litus E.A. Kazakov A.S. Deryusheva E.I. Nemashkalova E.L. Shevelyova M.P. Nazipova A.A. Permyakova M.E. Raznikova E.V. Uversky V.N. Permyakov S.E. Serotonin promotes serum albumin interaction with ||| ref [7] = [7]; PMID 10347147; doi:10.1074/jbc.274.23.15990; 7. Bohrmann B. Tjernberg L. Kuner P. Poli S. Levet-Trafit B. Naslund J. Richards G. Huber W. Dobeli H. Nordstedt C. Endogenous proteins controlling amyloid beta-peptide polymerization. Possible implic ||| ref [14] = [14]; PMID 29409811; doi:10.1016/j.jmb.2018.01.008; 14. Bode D.C. Stanyon H.F. Hirani T. Baker M.D. Nield J. Viles J.H. Serum albumin’s protective inhibition of amyloid-β fiber formation is suppressed by cholesterol, fatty acids and warfarin J. Mol. Bi ||| ref [13] = [13]; PMID 34072751; doi:10.3390/ijms22115896; 13. Litus E.A. Kazakov A.S. Deryusheva E.I. Nemashkalova E.L. Shevelyova M.P. Nazipova A.A. Permyakova M.E. Raznikova E.V. Uversky V.N. Permyakov S.E. Serotonin promotes serum albumin interaction with; conditions: cited from earlier work; for effect on HSA affinity toward monomeric Aβ: ref [12],[13]; for effect of HSA ligand on HSA–Aβ interaction: ref [14]
[1] = biological target: A21G mutant of amyloid-β peptide 1-40, Flemish variant of Aβ40 (human); assay: SPR; as a1, but with 100 uM ibuprofen (IBU) in the running buffer: Aβ immobilised by amine coupling and washed to monomer; analyte 0.5-8 uM HSA; 25 °C; 20 mM Tris-HCl, 140 mM NaCl, […] KCl, 1 mM MgCl2, […] CaCl2, pH 7.4; heterogeneous ligand model (two ligand populations L1 and L2)
[2] = biological target: A21G mutant of amyloid-β peptide 1-40, Flemish variant of Aβ40 (human); assay: SPR; Aβ immobilised by amine coupling on a ProteOn GLH chip (6000-9000 RU), non-covalently bound Aβ washed off (2% SDS, 100 mM HCl, 20 mM EDTA pH 8.0 with 1% SDS) to leave monomeric Aβ; analyte 0.5-8 uM HSA; no IBU; 25 °C; 20 mM Tris-HCl, 140 mM NaCl, […] KCl, 1 mM MgCl2, […] CaCl2, pH 7.4; heterogeneous ligand model (two ligand populations L1 and L2)

CCCCC/C=C\C/C=C\C/C=C\C/C=C\CCCC(=O)O [arachidonic acid, arachidonic]
effect on HSA affinity toward monomeric Aβ (HSA–Aβ interaction): enhance HSA affinity toward monomeric Aβ

CC(C)CCC[C@@H](C)[C@H]1CC[C@H]2[C@@H]3CC=C4C[C@@H](O)CC[C@]4(C)[C@H]3CC[C@]12C [cholesterol]
effect of HSA ligand on HSA–Aβ interaction (HSA–Aβ interaction): exert the opposite effect; also recorded: act in the opposite direction

CCCCC/C=C\C/C=C\CCCCCCCC(=O)O [linoleic acid]
effect on HSA affinity toward monomeric Aβ (HSA–Aβ interaction): enhance HSA affinity toward monomeric Aβ

NCCc1c[nH]c2ccc(O)cc12 [serotonin]
effect on HSA affinity toward monomeric Aβ (HSA–Aβ interaction): enhance HSA affinity toward monomeric Aβ

N[C@@H](Cc1c[nH]c2ccccc12)C(=O)O [tryptophan]
effect on the HSA–Aβ40/Aβ42 equilibrium (HSA–Aβ interaction; ref [13]): does not affect the HSA–Aβ40/Aβ42 equilibrium

CC(=O)CC(c1ccccc1)c1c(O)c2ccccc2oc1=O (stereo not shown) [warfarin]
effect of HSA ligand on HSA–Aβ interaction (HSA–Aβ interaction): exert the opposite effect; also recorded: act in the opposite direction

human serum albumin (from UniProt P02768 25-609) (natural protein)
Kd1 (ligand population L1) [1]: 8.2 pM
ka1 (ligand population L1) [1]: 25000 M⁻¹ s⁻¹
kd1 (ligand population L1) [1]: 2e-07 s⁻¹
kd2 (ligand population L2) [1]: 1.03e-06 s⁻¹
Kd2 (ligand population L2) [2]: 670 pM
ka1 (ligand population L1) [2]: 30000 M⁻¹ s⁻¹
kd2 (ligand population L2) [2]: 1.8e-06 s⁻¹
